In paper PMC4164784, “4E-BPs require non-canonical 4E-binding motifs and a lateral surface of eIF4E to repress translation” (Nature Communications, 2014):
Entries after “also recorded” stand apart in the source; their conditions may differ.

Legend:
[1] = test system: endogenous eIF4E; assay: Coimmunoprecipitation / m7GTP pull-down with endogenous eIF4E in S2 cell lysates; type: cell-based, Drosophila melanogaster; conditions: western blot
Procedure: (§1) The coimmunoprecipitations assays were performed as previously described. For the pull downs using m^7GTP beads, 25 μl of immobilized γ-aminophenyl-m^7GTP (C10-spacer—Jena Bioscience) beads was added to the cell lysates and the mixtures were rotated for 1 h at 4 °C. The beads were washed three times with NET buffer (50 mM Tris (pH 7.4), 150 mM NaCl, 1 mM EDTA and 0.1% Triton X-100). The bound proteins were eluted with 2 × SDS–polyacrylamide gel electrophoresis (SDS–PAGE) sample buffer and analyzed by western blotting (WB). All of the WB experiments were developed with the ECL western blotting detection system (GE Healthcare) as recommended by the manufacturer. The antibodies used in this study are listed in Supplementary Table 2.
Thor and 4E-T) or HA-eIF4G and endogenous eIF4E in S2 cell lysates. The proteins were immunoprecipitated using a polyclonal anti-eIF4E antibody (α-4E). The pre-immune (Pre-I) serum and an HA-tagged version of MBP served as negative controls. The inputs (1%) and immunoprecipitates (10%) were analyzed by western blotting using anti-HA and anti-eIF4E antibodies. (b,c) The interaction of HA-tagged full length 4E-BPs (CUP, Thor and 4E-T) and eIF4G with endogenous eIF4E was analyzed by coimmunoprecipitation using anti-HA antibodies (b) or by pull-down using m7GTP-Sepharose beads (c). HA-MBP served as a negative control. The inputs (10%) and immunoprecipitates (30%) were analyzed by western blotting using anti-HA and anti-eIF4E antibodies. (d) Western blot showing the interaction of HA-Thor (full-length either wild-type or mutants) with endogenous eIF4E in S2 cells. The proteins were immunoprecipitated using anti-HA antibodies and analyzed as described in (b,c). (e) Western blot showing the interaction of HA-4E-T (residues 1–511, wild-type or mutants) with endogenous eIF4E. The proteins were immunoprecipitated using anti-HA antibodies and analyzed as described in (b,c). The size markers (kDa) are shown to the right of each panel. Mutants are described in Supplementary Table 1.

[2] = test system: eIF4E II-AA (lateral surface mutant); assay: Coimmunoprecipitation with HA-eIF4E II-AA in S2 cells; type: cell-based, Drosophila melanogaster; conditions: HA-eIF4E II-AA vs WT, western blot
Procedure: as §1

[3] = test system: eIF4E II-AA mutant (full length); assay: GST/MBP pull-down of full-length eIF4E II-AA mutant, coexpressed in E. coli; type: binding, Drosophila melanogaster; conditions: recombinant CUP (311–440), Thor (full length), 4E-T (1–58) or eIF4G (578–650), WT or mutant, SDS–PAGE
Procedure: (§2) For the pull-down assays shown in Fig. 3 and Supplementary Fig. 6a, the full-length His6- or SHN-tagged eIF4E (WT or II-AA mutant) was coexpressed with GST or MBP-tagged protein fragments, including CUP (residues 311–440), Thor (full length), 4E-T (residues 1–58) or eIF4G (residues 578–650) in E. coli BL21 (DE3) STAR cells in autoinducing medium[44] overnight at 20 °C. The cells were resuspended in lysis buffer (20 mM Tris–HCl (pH 7.5), 100 mM NaCl, 1 mM DTT) supplemented with EDTA-free protease inhibitor (Roche) and lysed by sonication. The cleared lysates were incubated for 1 h with 20 μl of Protino Glutathione Agarose 4B beads (Macherey-Nagel) or amylose resin (New England Biolabs). The beads were washed three times with lysis buffer, and the bound proteins were eluted with lysis buffer containing 25 mM L-glutathione or 25 mM maltose for 15 min. The proteins were analyzed by 10–15% SDS–PAGE followed by Coomassie blue staining.

[4] = test system: firefly luciferase (F-Luc) reporter in S2 cells; assay: Translation repression assay, F-Luc reporter in S2 cells; type: cell-based, Drosophila melanogaster; conditions: overexpression, C.I. and E.I., unpublished results
Procedure: S2 cells were transfected in 6-well plates using Effectene transfection reagent (Qiagen) according to the manufacturers protocol. The transfection mixtures contained: 0.1 μg of F-Luc reporter plasmid (F-Luc-V5), 0.3 μg of control RNA reporter, and increasing amounts of plasmids expressing HA-CUP (fragment 1–402; 0.05–0.2 μg) and HA-Thor (full length, 0.1–0.5 μg). The plasmids expressing the corresponding mutants or the HA peptide control were transfected at the highest concentration. In all the experiments, the cells were collected three days after transfection. The F-Luc activity was measured using the Dual-Luciferase reporter assay system (Promega). The northern blotting was performed as previously described. The F-Luc mRNA levels were determined by northern blotting and were normalized to those of the control RNA. The normalized F-Luc mRNA levels were then used to normalize the F-Luc activity, to obtain translation efficiencies.

[5] = test system: endogenous eIF4E and HA-tagged 4E-BPs in S2 cells; assay: Immunofluorescence localization in S2 cells; type: cell-based, Drosophila melanogaster
Procedure: S2 cells expressing HA-tagged versions of CUP, Thor and 4E-T or the indicated mutants were treated with Leptomycin B (100 nM; Sigma) or methanol as a control for 12 h. After the LMB treatment, the cells were allowed to adhere to poly-D-lysine–coated coverslips for 15 min and were fixed with 2% paraformaldehyde for 10 min. The cells were then permeabilized with 0.1% Triton X-100 in PBS (10 min) and stained with affinity-purified monoclonal anti-HA (Covance 1:1,000) and polyclonal anti-eIF4E (1:2,000) antibodies in PBS containing 1% BSA for 1 h. Alexa Fluor 594-labeled goat anti-rabbit and 488-labeled anti-mouse antibodies (Invitrogen) were used at dilutions of 1:1,000 and 1:2,000, respectively. The cells were mounted using Fluoromount-G (Southern Biotech). The images were acquired at room temperature using a confocal microscope (TCS SP2; Leica) that was fitted with a Plan-Apochromat × 100 NA 1.40 oil immersion objective and a series of three photomultipliers (Hamamatsu Photonics) controlled with the Leica confocal software (version 2.61). The images were prepared using Photoshop (Adobe). […]
Thor) independent experiments. […] Confocal fluorescent […]
micrographs of fixed S2 cells expressing HA-4E-T and GFP-Tral. The localization of HA-4E-T was determined by indirect immunofluorescence using an anti-HA antibody. The merged pictures show the HA signal in red and the GFP-Tral signal in green. Bar: 5 μm.

[6] = target: T1, SHN-eIF4E (full length, WT) (Drosophila melanogaster, UniProt P48598-2 1-248); assay: pull-down; preassembled complexes of SHN-eIF4E (WT or II-AA) with GST-eIF4G, GST-CUP, GST-Thor or GST-4E-T (coexpressed, purified on glutathione agarose) recovered on Strep-Tactin beads; conditions: both partners purified
T1 construct: eIF4E, Drosophila melanogaster; also called SHN-tagged eIF4E; SNH-tagged eIF4E; not shown: Strep-NusA-His (SHN), N-terminal, kept
T1 sequence (looked up): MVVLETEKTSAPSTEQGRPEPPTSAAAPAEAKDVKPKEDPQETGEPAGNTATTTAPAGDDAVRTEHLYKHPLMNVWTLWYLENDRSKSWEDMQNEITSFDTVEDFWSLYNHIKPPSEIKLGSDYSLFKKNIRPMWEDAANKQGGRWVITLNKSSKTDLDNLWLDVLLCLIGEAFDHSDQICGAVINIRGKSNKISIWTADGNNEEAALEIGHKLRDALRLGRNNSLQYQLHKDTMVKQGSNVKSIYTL

[7] = test system: eIF4E (full length, WT); assay: GST/MBP pull-down of full-length WT eIF4E, coexpressed in E. coli; type: binding, Drosophila melanogaster; conditions: recombinant CUP (311–440), Thor (full length), 4E-T (1–58) or eIF4G (578–650), WT or mutant, SDS–PAGE
Procedure: as §2

[8] = target: T2, eIF4E–eIF4G complex (eIF4E WT; eIF4G residues 578–650) (Drosophila melanogaster, UniProt P48598); assay: Competition assay, displacement of GST-eIF4G from preassembled eIF4E (WT)–eIF4G complexes; type: biochemical; conditions: Fig. 5a,c; fivefold molar excess of MBP-tagged competitor, 30 min at 4 °C, m7GTP or Strep-Tactin pull down
T2 construct: full-length eIF4E (WT or the II-AA mutant) containing an N-terminal SNH-tag was coexpressed; made in house; host or cells: E. coli BL21 Star (DE3), coexpression
T2 sequence (P48598 1-248 isoform P48598-2): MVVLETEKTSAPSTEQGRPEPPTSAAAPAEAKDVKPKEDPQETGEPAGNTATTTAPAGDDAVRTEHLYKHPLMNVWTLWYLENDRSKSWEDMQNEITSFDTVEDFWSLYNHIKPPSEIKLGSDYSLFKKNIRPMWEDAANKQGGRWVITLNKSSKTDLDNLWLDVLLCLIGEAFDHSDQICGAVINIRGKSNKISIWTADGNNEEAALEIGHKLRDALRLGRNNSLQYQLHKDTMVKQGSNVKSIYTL
Procedure: For the competition assays shown in Figs 5a,c and 6a,b, complexes containing SHN- or MBP-tagged eIF4E (WT or II-AA mutant) bound to GST-eIF4G (residues 578–650), GST-Thor (full length), GST-4E-T (residues 1–58) or GST-CUP (311–440) were obtained by coexpressing the corresponding proteins in E. coli BL21 (DE3) STAR cells (30 ml culture). The cells were resuspended in lysis buffer (5 ml) that was supplemented with EDTA-free protease inhibitor (Roche) and 1 mg ml^−1 lysozyme and lysed by sonication. The cleared lysates were incubated with 400 μl of Protino Glutathione Agarose 4B (Macherey-Nagel) for 1 h. The beads were washed three times with lysis buffer, and the proteins were eluted after 10 min of incubation with lysis buffer containing 25 mM L-glutathione. The protein complexes were stored at −20 °C or used in competition assays.
The purified recombinant complexes were mixed with excess amounts of the indicated purified competitor proteins (Fig. 5c) or with bacterial lysates expressing the competitor proteins (Figs 5a and 6) and incubated for 30 min at 4 °C. After incubation, 20 μl of immobilized γ-Aminophenyl-m^7GTP or Strep-Tactin Sepharose (IBA), were added to the samples and incubated for another 40 min at 4 °C. The beads were washed three times with lysis buffer and eluted with lysis buffer containing 2.5 mM desthiobiotin (Strep-Tactin Sepharose) or with 20 μl of SDS–PAGE loading buffer (Aminophenyl-m^7GTP beads). The proteins were analyzed by 10–15% SDS–PAGE followed by staining with Coomassie blue staining. […]

Molecule	interaction with endogenous eIF4E (in words) [1]	association with eIF4E II-AA (in words) [2]	binding to eIF4E II-AA mutant (in words) [3]	effect on mRNA upon overexpression (in words) [4]	nuclear accumulation of endogenous eIF4E upon LMB (in words) ([5]; S2 cells expressing 4E-BP or mutant, LMB 100 nM, 12 h)	localization of endogenous eIF4E (in words) ([5]; S2 cells overexpressing 4E-BP or mutant, −LMB)	nuclear accumulation of 4E-BP upon LMB (in words) ([5]; S2 cells, LMB 100 nM, 12 h)	localization of the 4E-BP (in words) ([5]; S2 cells, steady-state, −LMB)	binding result [6]	binding to WT eIF4E (in words) [7]	competition with eIF4G for eIF4E WT (in words) [8]
4E-T: Dm 4E-transporter (1–1010), Q8IH18; residues 1–58 in pull-down assays (protein, left off: GFP, end not stated, kept, Dm 4E-transporter (1–1010), Q8IH18; residues 1–58 in pull-down assays) MDTSKISARYSKVDLLALRYEGKSRQRPQCSTRLELQTLGFWKINLNTAALTVSSAYSNQNKNRLSPEADNSSLICSNSSSISSRRAMRNRERANNYYQRFVPTDSLLISGEDKDKDALSHGQPYKLNIIDHRSISSSHLMPAFAKRRFVISKGSNSEESNEGINTCASKGKAASSPSRKGSELDTAETCLNFVQPDHDQCMSSSPTFSTSRQERRIGSGRLLPRSDNWDYKNEKTVEASIENEKETSPNGSGSTSSLNQHNQSQHRSRTFSGRLVERVPEVTDRRFQYDSKKSFDRQGINNRRISGKEPFSTQSRSKRGNSYLIHEEPEWFSAGPKSQLETIDLHGFEDLEKNEERSVTEDKNNQIQQLDKNLDAQASKDEASMRNSNDSLNFREVIPSDEKKHTDENVVTSIQNSTDLGHPNKNKPIQMQPSQNPESEFNFDAFLNMHPLDNSVLSNDETGKSDSKGTSRFSRWFRQKEAANNNEFPGFRESHAQEKRGIPSVKDLEAQMIKVDMRTDLINPIAGSLCQTVQMEKPIARDTEAFKKLLQQLGSQARQHHPCNDDCRTINLSNIANHVHLESKLHQKINDGHLQQPELSVNVPTMPTSSHVFLQKRLEIQHLIQRLHCGDVSHDFLEKELDNPSTPAATKDVIATVLNEYSHSKRNPVVTGDPNIFTQQSFLQPQSVHQHYSQELHSQNTANHTINQLISHGNSPTPLAFTPTSVLRKMTADKDTQSPSTYCQNPQYHVHQQNAKQVGTRENVLEPQLTATMAVQPRMILGGGNFAIGQNNQHLSPNMSQSRNQQVLKWTSGNMQMVHGKTFGRPILKGGLNSMPHSNSALPFTAHKIEMQPIHQPHLQQQQHRFKAVQSVESNLNTESVHQNITSPVGWHQLYMQHQQQHHHTRQQLSQRVIYGEMHRQSNPQMSPPVPGFSDSSDSGNVIKANSLTSPSYQRDERISSPTNQLAQWFSPELLAKASAGKLPLLNVNQALSLEEFERSIQHSSGVVHN	interacted with endogenous eIF4E	disrupted the association	pulled down comparable amounts of WT and mutant eIF4E	caused mRNA degradation when overexpressed	endogenous eIF4E accumulated in the nucleus	detected in P-bodies	nuclear accumulation	localizes to P-bodies; also recorded: accumulated in cytoplasmic foci, which correspond to P-bodies			
GST-Thor (full length) (natural protein, Drosophila melanogaster, UniProt Q9XZ56 1-117, looked up, Thor, Drosophila melanogaster; source: E. coli BL21 (DE3) STAR, coexpressed with SHN-eIF4E, complex purified on glutathione agarose) MSASPTARQAITQALPMITRKVVISDPIQMPEVYSSTPGGTLYSTTPGGTKLIYERAFMKNLRGSPLSQTPPSNVPSCLLRGTPRTPFRKCVPVPTELIKQTKSLKIEDQEQFQLDL									binds		
Thor ΔNC: Thor ∆76–84, non-canonical motif deleted (protein, left off: HA (λN-HA, from the vector pAc5.1-λN-HA), end not stated, kept | V5, end not stated, state not stated, Thor ∆76–84, non-canonical motif deleted) MSASPTARQAITQALPMITRKVVISDPIQMPEVYSSTPGGTLYSTTPGGTKLIYERAFMKNLRGSPLSQTPPSNVRTPFRKCVPVPTELIKQTKSLKIEDQEQFQLDL	abolished the interaction with eIF4E									The results obtained for the Thor NC* and C+NC* mutants were confirmed; also recorded: interacted with eIF4E	abolish its ability to compete with eIF4G
